Experimental data published in patent publication US20120165340.

Molecular target: FLAG-HA-PTEN, P60484
Sequence (P60484 whole entry): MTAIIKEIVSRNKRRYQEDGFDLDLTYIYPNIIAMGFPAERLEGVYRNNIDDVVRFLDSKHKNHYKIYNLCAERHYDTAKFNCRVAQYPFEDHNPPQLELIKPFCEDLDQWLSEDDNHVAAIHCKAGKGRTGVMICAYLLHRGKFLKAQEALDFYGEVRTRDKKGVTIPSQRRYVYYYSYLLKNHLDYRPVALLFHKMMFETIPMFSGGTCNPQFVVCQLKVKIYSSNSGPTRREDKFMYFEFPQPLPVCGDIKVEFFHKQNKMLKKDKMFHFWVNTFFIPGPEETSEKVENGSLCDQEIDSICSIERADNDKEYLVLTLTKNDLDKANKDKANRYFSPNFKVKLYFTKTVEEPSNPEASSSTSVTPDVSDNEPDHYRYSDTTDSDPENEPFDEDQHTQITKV

B1: Lyn (protein)
chain: GCIKSKGKDSLSDDGVDLKTQPVRNTERTIYVRDPTSNKQQRPVPESQLLPGQRFQTKDPEEQGDIVVALYPYDGIHPDDLSFKKGEKMKVLEEHGEWWKAKSLLTKKEGFIPSNYVAKLNTLETEEWFFKDITRKDAERQLLAPGNSAGAFLIRESETLKGSFSLSVRDFDPVHGDVIKHYKIRSLDNGGYYISPRITFPCISDMIKHYQKQADGLCRRLEKACISPKPQKPWDKDAWEIPRESIKLVKRLGAGQFGEVWMGYYNNSTKVAVKTLKPGTMSVQAFLEEANLMKTLQHDKLVRLYAVVTREEPIYIITEYMAKGSLLDFLKSDEGGKVLLPKLIDFSAQIAEGMAYIERKNYIHRDLRAANVLVSESLMCKIADFGLARVIEDNEYTAREGAKFPIKWTAPEAINFGCFTIKSDVWSFGILLYEIVTYGKIPYPGRTNADVMTALSQGYRMPRVENCPDELYDIMKMCWKEKAEERPTFDYLQSVLDDFYTATEGQYQQQP
B1 was tested, and the “phosphorylation of PTEN on Y240 (Western blot with anti-pY240)” value was “Upon co-expression of the Lyn cDNA with PTEN in HEK 293 cells, we observed a robust phosphorylation of PTEN on Y240” and the “phosphorylation of Y240 of PTEN (Western blot, FIG. 15)” value was “the phosphorylation of Y240 is much greater in the presence of lyn than when src is expressed with PTEN”.
